The assay concerns the target Type I Human Collagen (human) (UniProt P02452). Briefly: fluorescence polarisation; Cy5.5-labelled insulin formulated in saline (control) or in aCH (SPADE), mixed with a Type I human collagen solution at a predetermined w/w ratio; read immediately after mixing on a Molecular Devices Flexstation 3 plate reader.
Sequence of UniProt P02452 (P02452 162-1218, chain 1 of 2): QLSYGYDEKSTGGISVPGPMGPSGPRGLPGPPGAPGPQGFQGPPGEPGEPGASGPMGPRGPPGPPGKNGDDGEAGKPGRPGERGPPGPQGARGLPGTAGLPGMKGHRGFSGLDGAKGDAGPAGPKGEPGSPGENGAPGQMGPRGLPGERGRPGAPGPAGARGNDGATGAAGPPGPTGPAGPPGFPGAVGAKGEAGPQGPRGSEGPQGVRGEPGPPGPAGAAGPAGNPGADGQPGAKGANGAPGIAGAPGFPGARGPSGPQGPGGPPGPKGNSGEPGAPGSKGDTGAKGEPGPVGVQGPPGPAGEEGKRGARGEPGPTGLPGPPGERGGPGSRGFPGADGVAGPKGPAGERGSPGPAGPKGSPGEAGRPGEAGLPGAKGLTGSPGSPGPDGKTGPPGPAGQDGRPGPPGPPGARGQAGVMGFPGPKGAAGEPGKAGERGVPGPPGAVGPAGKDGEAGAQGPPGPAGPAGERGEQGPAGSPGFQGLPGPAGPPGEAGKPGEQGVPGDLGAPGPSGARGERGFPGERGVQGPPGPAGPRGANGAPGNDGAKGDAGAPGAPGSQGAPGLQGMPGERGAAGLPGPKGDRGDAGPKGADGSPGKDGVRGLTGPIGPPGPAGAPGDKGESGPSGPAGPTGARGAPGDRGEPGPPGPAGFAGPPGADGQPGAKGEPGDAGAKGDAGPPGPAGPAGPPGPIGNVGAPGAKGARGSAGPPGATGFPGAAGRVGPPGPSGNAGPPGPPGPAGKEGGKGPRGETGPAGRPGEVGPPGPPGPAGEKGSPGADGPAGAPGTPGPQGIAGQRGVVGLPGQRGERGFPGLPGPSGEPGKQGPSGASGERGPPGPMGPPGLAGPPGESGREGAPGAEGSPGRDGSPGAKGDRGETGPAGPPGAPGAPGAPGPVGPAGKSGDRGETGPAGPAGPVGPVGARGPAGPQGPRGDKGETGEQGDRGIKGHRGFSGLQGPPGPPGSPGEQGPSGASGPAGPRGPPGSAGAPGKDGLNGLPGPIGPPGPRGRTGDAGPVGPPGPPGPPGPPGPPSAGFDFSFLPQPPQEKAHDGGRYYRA
Sequence of UniProt P02452 (P08123 80-1119, chain 2 of 2, further chain): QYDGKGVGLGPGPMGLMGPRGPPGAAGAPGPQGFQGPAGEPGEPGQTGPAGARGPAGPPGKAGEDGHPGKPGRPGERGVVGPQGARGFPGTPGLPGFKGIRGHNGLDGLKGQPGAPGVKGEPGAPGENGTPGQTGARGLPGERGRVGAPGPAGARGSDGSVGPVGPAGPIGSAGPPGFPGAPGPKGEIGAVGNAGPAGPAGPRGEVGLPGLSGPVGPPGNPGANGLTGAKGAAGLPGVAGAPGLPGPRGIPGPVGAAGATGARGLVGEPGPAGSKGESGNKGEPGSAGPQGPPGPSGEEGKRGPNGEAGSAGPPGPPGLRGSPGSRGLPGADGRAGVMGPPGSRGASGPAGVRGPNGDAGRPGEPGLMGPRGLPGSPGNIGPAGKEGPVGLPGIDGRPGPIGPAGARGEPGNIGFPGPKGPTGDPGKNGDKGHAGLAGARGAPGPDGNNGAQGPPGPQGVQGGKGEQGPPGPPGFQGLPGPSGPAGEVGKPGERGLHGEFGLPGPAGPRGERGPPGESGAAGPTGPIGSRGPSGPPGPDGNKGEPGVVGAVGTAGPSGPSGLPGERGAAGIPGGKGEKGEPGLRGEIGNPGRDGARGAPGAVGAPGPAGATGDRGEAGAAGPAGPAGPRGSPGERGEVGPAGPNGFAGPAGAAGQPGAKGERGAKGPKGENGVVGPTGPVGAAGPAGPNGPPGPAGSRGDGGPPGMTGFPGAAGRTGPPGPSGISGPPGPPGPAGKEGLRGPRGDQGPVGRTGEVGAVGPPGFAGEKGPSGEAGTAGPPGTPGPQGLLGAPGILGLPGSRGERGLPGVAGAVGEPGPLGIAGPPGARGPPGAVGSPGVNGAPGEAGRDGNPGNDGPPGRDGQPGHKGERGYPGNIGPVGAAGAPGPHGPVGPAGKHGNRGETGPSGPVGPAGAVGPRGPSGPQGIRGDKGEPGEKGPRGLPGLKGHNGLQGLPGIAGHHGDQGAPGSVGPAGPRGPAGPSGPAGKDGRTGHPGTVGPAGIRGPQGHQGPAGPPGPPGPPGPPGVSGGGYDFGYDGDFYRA

Turning to “Cy 5.5 fluorescently-labeled insulin (ligand)”, the average polarisation of the saline control relative to the aCH (SPADE) formulation came out at 1.5 fold.
